From the Human Domainome abundance scans (Beltran et al. 2025)
± gives the uncertainty stated by the source.

B1: CD2-associated protein, residues 1 to 59; numbered along this chain, Q9Y5K6 (parent)
chain: MVDYIVEYDYDAVHDDELTIRVGEIIRNVKKLQEEGWLEGELNGRRGMFPDNFVKEIKR

Variants of: B1
Experiment: abundance fitness (aPCA) (normalised: wild type 0, dead -1); higher = more abundant; growth selection in yeast, the domain comes from the species named
Conditions: Homo sapiens

Question: Which abundance fitness does the source give for MVDYIVEYDYDAVHDDELTIRVGEIIRNVKKDQEEGWLEGELNGRRGMFPDNFVKEIKR [L32D] here?
Answer: -0.223 ± 0.14

Question: For MVDYIVEYDYDAVHDDELTIRVGEIIRNVKKKQEEGWLEGELNGRRGMFPDNFVKEIKR [L32K], which abundance fitness is on record?
Answer: 0.01 ± 0.15

Question: With MVDYIVEYDYDAVHDDELTIRVGEIIRNVKKIQEEGWLEGELNGRRGMFPDNFVKEIKR [L32I] as the variant, how does the abundance fitness read?
Answer: -0.238 ± 0.15

Question: For MVDYIVEYDYDAVHDDELTIRVGEIIRNVKKTQEEGWLEGELNGRRGMFPDNFVKEIKR [L32T], which abundance fitness is on record?
Answer: -0.302 ± 0.21

Question: With MVDYIVEYDYDAVHDDELTIRVGEIIRNVKKGQEEGWLEGELNGRRGMFPDNFVKEIKR [L32G] as the variant, how does the abundance fitness read?
Answer: -0.013 ± 0.079

Question: With MVDYIVEYDYDAVHDDELTIRVGEIIRNVKKFQEEGWLEGELNGRRGMFPDNFVKEIKR [L32F] as the variant, how does the abundance fitness read?
Answer: 0.016 ± 0.19

Question: Which abundance fitness does the source give for MVDYIVEYDYDAVHDDELTIRVGEIIRNVKKYQEEGWLEGELNGRRGMFPDNFVKEIKR [L32Y] here?
Answer: -0.206 ± 0.18

Question: With MVDYIVEYDYDAVHDDELTIRVGEIIRNVKKPQEEGWLEGELNGRRGMFPDNFVKEIKR [L32P] as the variant, how does the abundance fitness read?
Answer: -0.152 ± 0.13

Question: For MVDYIVEYDYDAVHDDELTIRVGEIIRNVKKCQEEGWLEGELNGRRGMFPDNFVKEIKR [L32C], which abundance fitness is on record?
Answer: 0.003 ± 0.11

Question: Which abundance fitness does the source give for MVDYIVEYDYDAVHDDELTIRVGEIIRNVKKLQYEGWLEGELNGRRGMFPDNFVKEIKR [E34Y] here?
Answer: -0.089 ± 0.3

Question: Which abundance fitness does the source give for MVDYIVEYDYDAVHDDELTIRVGEIIRNVKKLQVEGWLEGELNGRRGMFPDNFVKEIKR [E34V] here?
Answer: -0.006 ± 0.091

Question: For MVDYIVEYDYDAVHDDELTIRVGEIIRNVKKLQHEGWLEGELNGRRGMFPDNFVKEIKR [E34H], which abundance fitness is on record?
Answer: 0.173 ± 0.18

Question: For MVDYIVEYDYDAVHDDELTIRVGEIIRNVKKLQCEGWLEGELNGRRGMFPDNFVKEIKR [E34C], which abundance fitness is on record?
Answer: 0.094 ± 0.21

Question: With MVDYIVEYDYDAVHDDELTIRVGEIIRNVKKLQREGWLEGELNGRRGMFPDNFVKEIKR [E34R] as the variant, how does the abundance fitness read?
Answer: 0.018 ± 0.077

Question: With MVDYIVEYDYDAVHDDELTIRVGEIIRNVKKLQMEGWLEGELNGRRGMFPDNFVKEIKR [E34M] as the variant, how does the abundance fitness read?
Answer: 0.05 ± 0.099

Question: With MVDYIVEYDYDAVHDDELTIRVGEIIRNVKKLQTEGWLEGELNGRRGMFPDNFVKEIKR [E34T] as the variant, how does the abundance fitness read?
Answer: -0.028 ± 0.14

Question: For MVDYIVEYDYDAVHDDELTIRVGEIIRNVKKLQGEGWLEGELNGRRGMFPDNFVKEIKR [E34G], which abundance fitness is on record?
Answer: -0.034 ± 0.072

Question: For MVDYIVEYDYDAVHDDELTIRVGEIIRNVKKLQAEGWLEGELNGRRGMFPDNFVKEIKR [E34A], which abundance fitness is on record?
Answer: -0.048 ± 0.13

Question: Which abundance fitness does the source give for MVDYIVEYDYDAVHDDELTIRVGEIIRNVKKLQWEGWLEGELNGRRGMFPDNFVKEIKR [E34W] here?
Answer: -0.057 ± 0.098

Question: Which abundance fitness does the source give for MVDYIVEYDYDAVHDDELTIRVGEIIRNVKKLQKEGWLEGELNGRRGMFPDNFVKEIKR [E34K] here?
Answer: 0.075 ± 0.15

Question: With MVDYIVEYDYDAVHDDELTIRVGEIIRNVKKLQQEGWLEGELNGRRGMFPDNFVKEIKR [E34Q] as the variant, how does the abundance fitness read?
Answer: -0.241 ± 0.36

Question: With MVDYIVEYDYDAVHDDELTIRVGEIIRNVKKLQPEGWLEGELNGRRGMFPDNFVKEIKR [E34P] as the variant, how does the abundance fitness read?
Answer: -0.152 ± 0.19

Question: For MVDYIVEYDYDAVHDDELTIRVGEIIRNVKKLQNEGWLEGELNGRRGMFPDNFVKEIKR [E34N], which abundance fitness is on record?
Answer: 0.009 ± 0.16

Question: Which abundance fitness does the source give for MVDYIVEYDYDAVHDDELTIRVGEIIRNVKKLQLEGWLEGELNGRRGMFPDNFVKEIKR [E34L] here?
Answer: 0.004 ± 0.072

Question: With MVDYIVEYDYDAVHDDELTIRVGEIIRNVKKLQDEGWLEGELNGRRGMFPDNFVKEIKR [E34D] as the variant, how does the abundance fitness read?
Answer: -0.148 ± 0.15

Question: With MVDYIVEYDYDAVHDDELTIRVGEIIRNVKKLQIEGWLEGELNGRRGMFPDNFVKEIKR [E34I] as the variant, how does the abundance fitness read?
Answer: 0.074 ± 0.24

Question: For MVDYIVEYDYDAVHDDELTIRVGEIIRNVKKLQECGWLEGELNGRRGMFPDNFVKEIKR [E35C], which abundance fitness is on record?
Answer: -0.156 ± 0.093

Question: With MVDYIVEYDYDAVHDDELTIRVGEIIRNVKKLQEQGWLEGELNGRRGMFPDNFVKEIKR [E35Q] as the variant, how does the abundance fitness read?
Answer: -0.07 ± 0.092

Question: Which abundance fitness does the source give for MVDYIVEYDYDAVHDDELTIRVGEIIRNVKKLQEHGWLEGELNGRRGMFPDNFVKEIKR [E35H] here?
Answer: -0.068 ± 0.14

Question: Which abundance fitness does the source give for MVDYIVEYDYDAVHDDELTIRVGEIIRNVKKLQESGWLEGELNGRRGMFPDNFVKEIKR [E35S] here?
Answer: -0.082 ± 0.068

Question: Which abundance fitness does the source give for MVDYIVEYDYDAVHDDELTIRVGEIIRNVKKLQEMGWLEGELNGRRGMFPDNFVKEIKR [E35M] here?
Answer: -0.189 ± 0.11

Question: With MVDYIVEYDYDAVHDDELTIRVGEIIRNVKKLQEFGWLEGELNGRRGMFPDNFVKEIKR [E35F] as the variant, how does the abundance fitness read?
Answer: -0.158 ± 0.15

Question: Which abundance fitness does the source give for MVDYIVEYDYDAVHDDELTIRVGEIIRNVKKLQEKGWLEGELNGRRGMFPDNFVKEIKR [E35K] here?
Answer: 0.027 ± 0.11

Question: Which abundance fitness does the source give for MVDYIVEYDYDAVHDDELTIRVGEIIRNVKKLQEIGWLEGELNGRRGMFPDNFVKEIKR [E35I] here?
Answer: -0.062 ± 0.095

Question: Which abundance fitness does the source give for MVDYIVEYDYDAVHDDELTIRVGEIIRNVKKLQEYGWLEGELNGRRGMFPDNFVKEIKR [E35Y] here?
Answer: -0.215 ± 0.15

Question: For MVDYIVEYDYDAVHDDELTIRVGEIIRNVKKLQEWGWLEGELNGRRGMFPDNFVKEIKR [E35W], which abundance fitness is on record?
Answer: -0.399 ± 0.11

Question: Which abundance fitness does the source give for MVDYIVEYDYDAVHDDELTIRVGEIIRNVKKLQEDGWLEGELNGRRGMFPDNFVKEIKR [E35D] here?
Answer: -0.032 ± 0.084

Question: With MVDYIVEYDYDAVHDDELTIRVGEIIRNVKKLQEVGWLEGELNGRRGMFPDNFVKEIKR [E35V] as the variant, how does the abundance fitness read?
Answer: -0.049 ± 0.066

Question: Which abundance fitness does the source give for MVDYIVEYDYDAVHDDELTIRVGEIIRNVKKLQEPGWLEGELNGRRGMFPDNFVKEIKR [E35P] here?
Answer: 0.051 ± 0.099

Question: For MVDYIVEYDYDAVHDDELTIRVGEIIRNVKKLQENGWLEGELNGRRGMFPDNFVKEIKR [E35N], which abundance fitness is on record?
Answer: 0.054 ± 0.11

Question: Which abundance fitness does the source give for MVDYIVEYDYDAVHDDELTIRVGEIIRNVKKLQEAGWLEGELNGRRGMFPDNFVKEIKR [E35A] here?
Answer: -0.067 ± 0.058

Question: Which abundance fitness does the source give for MVDYIVEYDYDAVHDDELTIRVGEIIRNVKKLQEGGWLEGELNGRRGMFPDNFVKEIKR [E35G] here?
Answer: -0.071 ± 0.061

Question: Which abundance fitness does the source give for MVDYIVEYDYDAVHDDELTIRVGEIIRNVKKLQELGWLEGELNGRRGMFPDNFVKEIKR [E35L] here?
Answer: -0.205 ± 0.062

Question: For MVDYIVEYDYDAVHDDELTIRVGEIIRNVKKLQERGWLEGELNGRRGMFPDNFVKEIKR [E35R], which abundance fitness is on record?
Answer: -0.016 ± 0.062

Question: For MVDYIVEYDYDAVHDDELTIRVGEIIRNVKKLQETGWLEGELNGRRGMFPDNFVKEIKR [E35T], which abundance fitness is on record?
Answer: -0.177 ± 0.067
